In the supplement of paper PMC5998384:

Legend:
HeLa Kyoto [1] = assay: solubility in G1/S (NP-40 vs SDS abundance) (log2 ratio); higher = more soluble; details: cell cycle stage: G1/S
HeLa Kyoto [2] = assay: melting temperature (median over replicates), in situ; higher = more thermally stable
HeLa Kyoto [3] = assay: solubility change mitosis vs G1/S (difference of NP-40 vs SDS log2 ratios) (log2 ratio difference); higher = more soluble in mitosis
HeLa Kyoto [4] = assay: thermal stability score vs G1/S (z-score of summed log2 fold changes over temperatures); higher = more thermally stable than in G1/S
[5] = cell cycle stage: early G1 (4.5 h after nocodazole release)
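Throughout, for melting temperature (median over replicates), in situ: HeLa Kyoto cells synchronized by double thymidine or nocodazole block, proteins quantified by TMT10plex mass spectrometry, three independent biological replicates.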
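Throughout, for solubility change mitosis vs G1/S (difference of NP-40 vs SDS log2 ratios): synchronized HeLa Kyoto cells (double thymidine block for G1/S, nocodazole release for mitosis), protein amounts in NP-40 versus SDS lysates quantified by mass spectrometry, three biological replicates.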
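Throughout, for solubility in G1/S (NP-40 vs SDS abundance): HeLa Kyoto cells arrested at G1/S by double thymidine block, proteins quantified by TMT10plex mass spectrometry in mild NP-40 versus SDS extracts, three biological replicates.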
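Throughout, for thermal stability score vs G1/S (z-score of summed log2 fold changes over temperatures): synchronized HeLa Kyoto cells, proteins quantified by TMT10plex mass spectrometry, three biological replicates, mitosis taken 0.5 h after nocodazole release, G1/S directly after double thymidine block.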

Row | Substance | solubility in G1/S (log2) (HeLa Kyoto [1]) | melting temperature (HeLa Kyoto [2]; cell cycle stage: G1/S) [°C] | melting temperature (HeLa Kyoto [2]; cell cycle stage: mitosis) [°C] | solubility change mitosis (log2) (HeLa Kyoto [3]) | thermal stability score (HeLa Kyoto [4]; [5]) | thermal stability score (HeLa Kyoto [4]; cell cycle stage: mitosis)
1 | MLRSCAARLRTLGALCLPPVGRRLPGSEPRPELRSFSSEEVILKDCSVPNPSWNKDLRLLFDQFMKKCEDGSWKRLPSYKRTPTEWIQDFKTHFLDPKLMKEEQMSQAQLFTRSFDDGLGFEYVMFYNDIEKRMVCLFQGGPYLEGPPGFIHGGAIATMIDATVGMCAMMAGGIVMTANLNINYKRPIPLCSVVMINSQLDKVEGRKFFVSCNVQSVDEKTLYSEATSLFIKLNPAKSLT [THEM4] | 0.0285 | 54.7 | 56.2 | -0.0775 | 0.216 | -1.16
2 | MAAEGWIWRWGWGRRCLGRPGLLGPGPGPTTPLFLLLLLGSVTADITDGNSEHLKREHSLIKPYQGVGSSSMPLWDFQGSTMLTSQYVRLTPDERSKEGSIWNHQPCFLKDWEMHVHFKVHGTGKKNLHGDGIALWYTRDRLVPGPVFGSKDNFHGLAIFLDTYPNDETTERVFPYISVMVNNGSLSYDHSKDGRWTELAGCTADFRNRDHDTFLAVRYSRGRLTVMTDLEDKNEWKNCIDITGVRLPTGYYFGASAGTGDLSDNHDIISMKLFQLMVEHTPDEESIDWTKIEPSVNFLKSPKDNVDDPTGNFRSGPLTGWRVFLLLLCALLGIVVCAVVGAVVFQKRQERNKRFY [LMAN2] | 0.163 | 54.1 | 53.8 | -0.0609 | 2.85 | 5.52
3 | MADKVRRQRPRRRVCWALVAVLLADLLALSDTLAVMSVDLGSESMKVAIVKPGVPMEIVLNKESRRKTPVIVTLKENERFFGDSAASMAIKNPKATLRYFQHLLGKQADNPHVALYQARFPEHELTFDPQRQTVHFQISSQLQFSPEEVLGMVLNYSRSLAEDFAEQPIKDAVITVPVFFNQAERRAVLQAARMAGLKVLQLINDNTATALSYGVFRRKDINTTAQNIMFYDMGSGSTVCTIVTYQMVKTKEAGMQPQLQIRGVGFDRTLGGLEMELRLRERLAGLFNEQRKGQRAKDVRENPRAMAKLLREANRLKTVLSANADHMAQIEGLMDDVDFKAKVTRVEFEELCADLFERVPGPVQQALQSAEMSLDEIEQVILVGGATRVPRVQEVLLKAVGKEELGKNINADEAAAMGAVYQAAALSKAFKVKPFVVRDAVVYPILVEFTREVEEEPGIHSLKHNKRVLFSRMGPYPQRKVITFNRYSHDFNFHINYGDLGFLGPEDLRVFGSQNLTTVKLKGVGDSFKKYPDYESKGIKAHFNLDESGVLSLDRVESVFETLVEDSAEEESTLTKLGNTISSLFGGGTTPDAKENGTDTVQEEEESPAEGSKDEPGEQVELKEEAEAPVEDGSQPPPPEPKGDATPEGEKATEKENGDKSEAQKPSEKAEAGPEGVAPAPEGEKKQKPARKRRMVEEIGVELVVLDLPDLPEDKLAQSVQKLQDLTLRDLEKQEREKAANSLEAFIFETQDKLYQPEYQEVSTEEQREEISGKLSAASTWLEDEGVGATTVMLKEKLAELRKLCQGLFFRVEERKKWPERLSALDNLLNHSSMFLKGARLIPEMDQIFTEVEMTTLEKVINETWAWKNATLAEQAKLPATEKPVLLSKDIEAKMMALDREVQYLLNKAKFTKPRPRPKDKNGTRAEPPLNASASDQGEKVIPPAGQTEDAEPISEPEKVETGSEPGDTEPLELGGPGAEPEQKEQSTGQKRPLKNDEL [HYOU1] | 0.402 | 54.1 | 54.4 | -0.0667 | 3.86 | 5.24
4 | MALDGIRMPDGCYADGTWELSVHVTDLNRDVTLRVTGEVHIGGVMLKLVEKLDVKKDWSDHALWWEKKRTWLLKTHWTLDKYGIQADAKLQFTPQHKLLRLQLPNMKYVKVKVNFSDRVFKAVSDICKTFNIRHPEELSLLKKPRDPTKKKKKKLDDQSEDEALELEGPLITPGSGSIYSSPGLYSKTMTPTYDAHDGSPLSPTSAWFGDSALSEGNPGILAVSQPITSPEILAKMFKPQALLDKAKINQGWLDSSRSLMEQDVKENEALLLRFKYYSFFDLNPKYDAIRINQLYEQAKWAILLEEIECTEEEMMMFAALQYHINKLSIMTSENHLNNSDKEVDEVDAALSDLEITLEGGKTSTILGDITSIPELADYIKVFKPKKLTLKGYKQYWCTFKDTSISCYKSKEESSGTPAHQMNLRGCEVTPDVNISGQKFNIKLLIPVAEGMNEIWLRCDNEKQYAHWMAACRLASKGKTMADSSYNLEVQNILSFLKMQHLNPDPQLIPEQITTDITPECLVSPRYLKKYKNKQITARILEAHQNVAQMSLIEAKMRFIQAWQSLPEFGITHFIARFQGGKKEELIGIAYNRLIRMDASTGDAIKTWRFSNMKQWNVNWEIKMVTVEFADEVRLSFICTEVDCKVVHEFIGGYIFLSTRAKDQNESLDEEMFYKLTSGWV [FERMT2] | -0.166 | 54.6 | 55.2 | -0.119 | -0.389 | 0.267
5 | MGIKVQRPRCFFDIAINNQPAGRVVFELFSDVCPKTCENFRCLCTGEKGTGKSTQKPLHYKSCLFHRVVKDFMVQGGDFSEGNGRGGESIYGGFFEDESFAVKHNKEFLLSMANRGKDTNGSQFFITTKPTPHLDGHHVVFGQVISGQEVVREIENQKTDAASKPFAEVRILSCGELIPKSKVKKEEKKRHKSSSSSSSSSSDSDSSSDSQSSSDSSDSESATEEKSKKRKKKHRKNSRKHKKEKKKRKKSKKSASSESEAENLEAQPQSTVRPEEIPPIPENRFLMRKSPPKADEKERKNRERERERECNPPNSQPASYQRRLLVTRSGRKIKGRGPRRYRTPSRSRSRDRFRRSETPPHWRQEMQRAQRMRVSSGERWIKGDKSELNEIKENQRSPVRVKERKITDHRNVSESPNRKNEKEKKVKDHKSNSKERDIRRNSEKDDKYKNKVKKRAKSKSRSKSKEKSKSKERDSKHNRNEEKRMRSRSKGRDHENVKEKEKQSDSKGKDQERSRSKEKSKQLESKSNEHDHSKSKEKDRRAQSRSRECDITKGKHSYNSRTRERSRSRDRSRRVRSRTHDRDRSRSKEYHRYREQEYRRRGRSRSRERRTPPGRSRSKDRRRRRRDSRSSEREESQSRNKDKYRNQESKSSHRKENSESEKRMYSKSRDHNSSNNSREKKADRDQSPFSKIKQSSQDNELKSSMLKNKEDEKIRSSVEKENQKSKGQENDHVHEKNKKFDHESSPGTDEDKSG [PPIG] | -1.67 | 45.8 | 47.6 | 0.846 | 1.25 | 2.05
6 | ITPR1 | -0.349 | 49.8 | 50.2 | -0.0166 | 0.726 | 1.96
7 | MLFIFNFLFSPLPTPALICILTFGAAIFLWLITRPQPVLPLLDLNNQSVGIEGGARKGVSQKNNDLTSCCFSDAKTMYEVFQRGLAVSDNGPCLGYRKPNQPYRWLSYKQVSDRAEYLGSCLLHKGYKSSPDQFVGIFAQNRPEWIISELACYTYSMVAVPLYDTLGPEAIVHIVNKADIAMVICDTPQKALVLIGNVEKGFTPSLKVIILMDPFDDDLKQRGEKSGIEILSLYDAENLGKEHFRKPVPPSPEDLSVICFTSGTTGDPKGAMITHQNIVSNAAAFLKCVEHAYEPTPDDVAISYLPLAHMFERIVQAVVYSCGARVGFFQGDIRLLADDMKTLKPTLFPAVPRLLNRIYDKVQNEAKTPLKKFLLKLAVSSKFKELQKGIIRHDSFWDKLIFAKIQDSLGGRVRVIVTGAAPMSTSVMTFFRAAMGCQVYEAYGQTECTGGCTFTLPGDWTSGHVGVPLACNYVKLEDVADMNYFTVNNEGEVCIKGTNVFKGYLKDPEKTQEALDSDGWLHTGDIGRWLPNGTLKIIDRKKNIFKLAQGEYIAPEKIENIYNRSQPVLQIFVHGESLRSSLVGVVVPDTDVLPSFAAKLGVKGSFEELCQNQVVREAILEDLQKIGKESGLKTFEQVKAIFLHPEPFSIENGLLTPTLKAKRGELSKYFRTQIDSLYEHIQD [ACSL5] | -0.0641 | 51.8 | 51.1 | -0.0802 | -0.104 | -0.53
